Holding throughout (assay): cleavage_in_vitro
Data set [1] concerns T1, OMNI-84 (Porphyrobacter donghaensis).
T1 sequence: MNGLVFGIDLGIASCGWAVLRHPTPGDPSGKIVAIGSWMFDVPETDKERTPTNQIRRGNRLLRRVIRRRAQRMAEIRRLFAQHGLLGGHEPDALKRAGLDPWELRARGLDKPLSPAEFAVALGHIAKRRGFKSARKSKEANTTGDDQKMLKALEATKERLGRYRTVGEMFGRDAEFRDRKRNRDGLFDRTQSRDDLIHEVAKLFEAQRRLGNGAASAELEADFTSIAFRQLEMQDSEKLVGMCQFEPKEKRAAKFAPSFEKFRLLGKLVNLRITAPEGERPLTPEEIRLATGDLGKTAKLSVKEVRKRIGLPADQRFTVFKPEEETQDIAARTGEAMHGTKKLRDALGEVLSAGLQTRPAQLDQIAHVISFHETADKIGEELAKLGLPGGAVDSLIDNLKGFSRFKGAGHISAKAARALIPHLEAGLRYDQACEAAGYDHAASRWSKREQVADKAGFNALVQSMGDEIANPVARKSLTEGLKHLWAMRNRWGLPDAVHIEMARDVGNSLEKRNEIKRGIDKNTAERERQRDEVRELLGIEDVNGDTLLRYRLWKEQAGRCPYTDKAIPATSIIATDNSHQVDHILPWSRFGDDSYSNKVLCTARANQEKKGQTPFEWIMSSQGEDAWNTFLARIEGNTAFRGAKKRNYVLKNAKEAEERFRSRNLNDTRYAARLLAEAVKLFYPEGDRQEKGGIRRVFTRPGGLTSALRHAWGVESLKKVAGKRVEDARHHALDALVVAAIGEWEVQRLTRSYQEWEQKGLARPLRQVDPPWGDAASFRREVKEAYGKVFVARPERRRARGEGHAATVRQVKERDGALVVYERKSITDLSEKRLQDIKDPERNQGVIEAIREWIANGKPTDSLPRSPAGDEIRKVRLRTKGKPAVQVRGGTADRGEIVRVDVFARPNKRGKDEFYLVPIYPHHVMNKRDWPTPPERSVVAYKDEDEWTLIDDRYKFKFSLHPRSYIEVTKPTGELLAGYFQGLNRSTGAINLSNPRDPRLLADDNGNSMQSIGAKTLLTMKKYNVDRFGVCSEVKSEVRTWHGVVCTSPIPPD
Conditions: PAM NNNNGCAA; TXTL.

Data set [2] deals with T2, OMNI-71 (Hyphobacterium sp. 2ED5).
T2 sequence: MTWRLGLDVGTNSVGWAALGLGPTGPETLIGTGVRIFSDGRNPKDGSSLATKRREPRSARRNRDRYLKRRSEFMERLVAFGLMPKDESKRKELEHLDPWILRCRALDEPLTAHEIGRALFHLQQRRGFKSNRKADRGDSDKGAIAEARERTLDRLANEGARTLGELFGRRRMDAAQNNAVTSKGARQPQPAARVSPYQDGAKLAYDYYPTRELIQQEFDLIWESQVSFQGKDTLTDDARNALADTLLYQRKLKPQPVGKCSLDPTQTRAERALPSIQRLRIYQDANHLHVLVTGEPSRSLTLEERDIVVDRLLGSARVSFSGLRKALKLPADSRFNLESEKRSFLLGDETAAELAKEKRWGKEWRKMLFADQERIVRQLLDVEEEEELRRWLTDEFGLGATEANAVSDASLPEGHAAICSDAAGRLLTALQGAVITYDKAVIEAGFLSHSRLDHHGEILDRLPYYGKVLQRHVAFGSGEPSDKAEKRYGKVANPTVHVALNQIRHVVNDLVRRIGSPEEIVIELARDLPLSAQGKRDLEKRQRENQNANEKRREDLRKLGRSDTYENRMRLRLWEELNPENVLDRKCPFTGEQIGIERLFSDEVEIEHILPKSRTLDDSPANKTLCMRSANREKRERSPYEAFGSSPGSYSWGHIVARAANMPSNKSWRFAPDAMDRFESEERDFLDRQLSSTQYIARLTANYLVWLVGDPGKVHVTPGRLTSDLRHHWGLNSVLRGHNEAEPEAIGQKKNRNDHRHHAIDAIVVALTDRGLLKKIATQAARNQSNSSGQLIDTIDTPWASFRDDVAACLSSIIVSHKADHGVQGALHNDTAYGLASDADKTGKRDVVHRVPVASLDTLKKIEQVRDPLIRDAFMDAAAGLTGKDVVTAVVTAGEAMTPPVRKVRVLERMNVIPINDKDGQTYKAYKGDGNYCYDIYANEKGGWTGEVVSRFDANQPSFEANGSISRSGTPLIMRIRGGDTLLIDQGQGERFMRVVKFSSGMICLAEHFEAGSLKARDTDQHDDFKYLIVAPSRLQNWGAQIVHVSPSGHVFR
The conditions noted are these: PAM NGG; TXTL.

Data set [3] deals with T3, OMNI-78 (Notoacmeibacter marinus).
T3 sequence: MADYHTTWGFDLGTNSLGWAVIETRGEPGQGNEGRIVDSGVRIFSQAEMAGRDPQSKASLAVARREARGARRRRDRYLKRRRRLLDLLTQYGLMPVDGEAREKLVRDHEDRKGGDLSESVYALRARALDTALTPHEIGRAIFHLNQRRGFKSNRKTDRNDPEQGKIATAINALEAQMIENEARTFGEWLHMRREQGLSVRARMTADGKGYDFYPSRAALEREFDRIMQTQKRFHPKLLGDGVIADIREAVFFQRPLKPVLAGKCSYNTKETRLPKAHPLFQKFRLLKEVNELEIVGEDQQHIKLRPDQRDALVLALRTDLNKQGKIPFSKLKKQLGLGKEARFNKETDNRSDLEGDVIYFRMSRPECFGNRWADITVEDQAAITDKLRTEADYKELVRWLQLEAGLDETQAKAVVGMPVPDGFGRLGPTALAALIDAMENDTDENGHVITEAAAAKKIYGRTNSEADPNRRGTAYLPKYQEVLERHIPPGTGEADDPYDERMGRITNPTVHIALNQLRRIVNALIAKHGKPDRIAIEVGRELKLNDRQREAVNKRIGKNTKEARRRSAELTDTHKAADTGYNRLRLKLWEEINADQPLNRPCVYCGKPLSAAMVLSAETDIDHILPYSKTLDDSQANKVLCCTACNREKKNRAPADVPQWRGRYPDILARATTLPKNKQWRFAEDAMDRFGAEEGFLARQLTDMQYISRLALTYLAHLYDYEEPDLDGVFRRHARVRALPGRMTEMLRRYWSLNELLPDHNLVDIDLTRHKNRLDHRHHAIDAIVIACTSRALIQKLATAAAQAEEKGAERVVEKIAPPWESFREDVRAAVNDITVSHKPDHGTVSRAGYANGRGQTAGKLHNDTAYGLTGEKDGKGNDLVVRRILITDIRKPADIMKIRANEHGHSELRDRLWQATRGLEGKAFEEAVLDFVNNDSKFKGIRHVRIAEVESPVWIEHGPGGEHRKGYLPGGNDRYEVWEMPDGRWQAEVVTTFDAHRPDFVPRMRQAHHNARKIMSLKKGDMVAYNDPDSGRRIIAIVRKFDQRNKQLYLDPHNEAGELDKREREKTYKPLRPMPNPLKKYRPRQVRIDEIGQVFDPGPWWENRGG
The conditions noted are these: PAM NRRNAT; TXTL.

Data set [4] relates to T4, OMNI-75 (Lactococcus sp. 1JSPR-7).
T4 sequence: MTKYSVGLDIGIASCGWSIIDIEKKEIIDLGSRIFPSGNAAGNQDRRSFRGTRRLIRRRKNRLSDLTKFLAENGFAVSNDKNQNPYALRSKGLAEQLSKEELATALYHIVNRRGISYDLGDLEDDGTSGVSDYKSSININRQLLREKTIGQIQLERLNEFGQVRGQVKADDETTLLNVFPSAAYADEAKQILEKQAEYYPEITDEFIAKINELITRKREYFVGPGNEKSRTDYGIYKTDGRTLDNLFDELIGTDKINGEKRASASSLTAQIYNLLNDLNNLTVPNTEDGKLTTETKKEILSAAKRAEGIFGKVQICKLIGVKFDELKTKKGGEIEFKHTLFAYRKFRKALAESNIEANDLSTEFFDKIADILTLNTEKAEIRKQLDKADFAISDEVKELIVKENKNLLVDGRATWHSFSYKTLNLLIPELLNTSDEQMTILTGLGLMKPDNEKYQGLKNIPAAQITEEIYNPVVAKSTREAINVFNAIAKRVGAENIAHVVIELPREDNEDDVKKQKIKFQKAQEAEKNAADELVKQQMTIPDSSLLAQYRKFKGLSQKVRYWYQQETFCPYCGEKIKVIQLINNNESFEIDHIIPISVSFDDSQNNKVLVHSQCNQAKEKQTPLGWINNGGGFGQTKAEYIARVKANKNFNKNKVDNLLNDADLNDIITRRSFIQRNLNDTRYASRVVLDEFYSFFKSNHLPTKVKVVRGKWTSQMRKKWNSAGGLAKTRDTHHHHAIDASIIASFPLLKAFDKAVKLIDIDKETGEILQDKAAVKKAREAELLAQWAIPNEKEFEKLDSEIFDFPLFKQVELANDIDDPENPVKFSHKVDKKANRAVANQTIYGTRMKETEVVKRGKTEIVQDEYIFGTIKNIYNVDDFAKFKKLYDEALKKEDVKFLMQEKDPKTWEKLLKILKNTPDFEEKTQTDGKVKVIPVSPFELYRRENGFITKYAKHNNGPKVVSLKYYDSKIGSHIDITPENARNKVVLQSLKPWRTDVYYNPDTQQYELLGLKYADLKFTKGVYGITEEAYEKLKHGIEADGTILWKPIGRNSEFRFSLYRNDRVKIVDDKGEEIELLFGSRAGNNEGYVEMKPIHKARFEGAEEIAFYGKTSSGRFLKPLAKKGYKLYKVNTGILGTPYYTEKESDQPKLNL
Conditions: PAM NNGNRA; TXTL.

Experimental findings from US20230383273 are described below.

“GGAAGAGCAGAGCCUUGGUCUCGCCGUGGUUUCCCUACCGAUUUGCCCAUGGUAGGGAAAGUUAUCGGCAAAUCGGUAGGGAAGCCACGGUAACAGAGCUUCACUGUGAAGGAUCAUCCUGAAGGGGAAAUUCCUUAUUGAAGCACUGAUACAGAGCUUCUGUAUUCAAACGACCCUUUCUGAGAUAUCAGAGAGGGUCGUUUUU / GGAAGAGCAGAGCCTTGGTCTCNNNNNNNN / NNNNNNNNGAGACCAAGGCTCTGCTCTTCC” had an activity (1-depletion score) in data set [1] of 0.93.
For “GGAAGAGCAGAGCCUUGGUCUCGUUCCGGUUGGAGAAAUCUUUCCGGUAACAAGGUUUAGACCACAAAAUGGAACGGCCUCUUCGGGGGUCGUUCUUUUUUU / GGAAGAGCAGAGCCTTGGTCTCNNNNNNNN / NNNNNNNNGAGACCAAGGCTCTGCTCTTCC”, the activity (1-depletion score) in data set [2] amounted to 0.96.
Turning to “GGAAGAGCAGAGCCUUGGUCUCGUUGCGGUUGGCCUGCGAGAAAUCGCAGUCCAGCCGUUAACAAGCUGAGAUAUGCACCAGAUAAGGCGCUCGCUCCGGCGAGCGCUUUUUU / GGAAGAGCAGAGCCTTGGTCTCNNNNNNNN / NNNNNNNNGAGACCAAGGCTCTGCTCTTCC”, in data set [3], the activity (1-depletion score) worked out at 0.9.
“GGAAGAGCAGAGCCUUGGUCUCGUUUUUGUACUCUCAAGAAAUUGAGAAUCUACAAGGAUAAGGCUUUAUGCCGAAAUCAUUAACUCGCCUUUGGGCGAGUUUUUU / GGAAGAGCAGAGCCTTGGTCTCNNNNNNNN / NNNNNNNNGAGACCAAGGCTCTGCTCTTCC” registered an activity (1-depletion score) in data set [4] of 0.93.
